Drawing on article PMC5372742, “Protection of the Queuosine Biosynthesis Enzyme QueF from Irreversible Oxidation by a Conserved Intramolecular Disulfide” (Biomolecules, 2017), this text covers Km and kcat for one protein.

Substrate in this data set: N#Cc1c[nH]c2nc(N)[nH]c(=O)c12
Nature of the data set: steady-state kinetics, fluorescence assay of product NADP+. The settings on record: co-substrate NADPH. The data set is classed as biochemical, Bacillus subtilis.

B1: B. subtilis QueF (Bacillus subtilis subsp. subtilis str. 168; E98Q) (protein)
chain: MTTRKESELEGVTLLGNQGTNYLFEYAPDVLESFPNKHVNRDYFVKFNCPEFTSLCPKTGQPDFATIYISYIPDEKMVESKSLKLYLFSFRNHGDFHQDCMNIIMNDLIELMDPRYIEVWGKFTPRGGISIDPYTNYGKPGTKYEKMAEYRMMNHDLYPETIDNR
notes: queF gene in pET-30Xa, expressed in E. coli BL21(DE3); ~160 amino acids, single T-fold domain, homodecamer; active sites at intersubunit interfaces
Turning to B1, the Km was 67 µM and the kcat was found to be 0.0006 s⁻¹.

The term Km denotes the substrate concentration at which the rate is half of its maximum. In general, kcat refers to the number of substrate molecules converted per active site and unit of time at saturation.
